Here are results for 3 proteins from ChEMBL document CHEMBL1275523.

Format in all cases: cell-based
Substrate in series [1]: CC(=O)N[C@H]1[C@H]([C@H](O)[C@H](O)CO)O[C@@](Oc2ccc3c(C)cc(=O)oc3c2)(C(=O)O)C[C@@H]1O
The series can be described thus: Activity of human NEU4 expressed in HEK293 cells by fluorometric high-performance liquid chromatography.

Substrate in series [2]: CC(=O)N[C@H]1[C@H]([C@H](O)[C@H](O)CO)O[C@@](Oc2ccc3c(C)cc(=O)oc3c2)(C(=O)O)C[C@@H]1O
The series can be described thus: Activity of human NEU2 expressed in HEK293 cells by fluorometric high-performance liquid chromatography.

Substrate in series [3]: CCCCCCCCCCCCC/C=C/[C@@H](O)[C@H](CO[C@@H]1O[C@H](CO)[C@@H](O[C@@H]2O[C@H](CO)[C@H](O)[C@H](O[C@]3(C(=O)O)C[C@H](O)[C@@H](NC(C)=O)[C@H]([C@H](O)[C@H](O)CO)O3)[C@H]2O)[C@H](O)[C@H]1O)NC(=O)CCCCCCCCCCCCCCCCCCCCCC
The series can be described thus: Activity of human NEU3 expressed in HEK293 cells by fluorometric high-performance liquid chromatography.

B1: Sialidase-4 (Homo sapiens), Q8WWR8 (protein)
chain: MGVPRTPSRTVLFERERTGLTYRVPSLLPVPPGPTLLAFVEQRLSPDDSHAHRLVLRRGTLAGGSVRWGALHVLGTAALAEHRSMNPCPVHDAGTGTVFLFFIAVLGHTPEAVQIATGRNAARLCCVASRDAGLSWGSARDLTEEAIGGAVQDWATFAVGPGHGVQLPSGRLLVPAYTYRVDRRECFGKICRTSPHSFAFYSDDHGRTWRCGGLVPNLRSGECQLAAVDGGQAGSFLYCNARSPLGSRVQALSTDEGTSFLPAERVASLPETAWGCQGSIVGFPAPAPNRPRDDSWSVGPGSPLQPPLLGPGVHEPPEEAAVDPRGGQVPGGPFSRLQPRGDGPRQPGPRPGVSGDVGSWTLALPMPFAAPPQSPTWLLYSHPVGRRARLHMGIRLSQSPLDPRSWTEPWVIYEGPSGYSDLASIGPAPEGGLVFACLYESGARTSYDEISFCTFSLREVLENVPASPKPPNLGDKPRGCCWPS
With B1, the Km in series [1] stood at 20.3 µM.

B2: Sialidase-2 (Homo sapiens), Q9Y3R4 (protein)
chain: MASLPVLQKESVFQSGAHAYRIPALLYLPGQQSLLAFAEQRASKKDEHAELIVLRRGDYDAPTHQVQWQAQEVVAQARLDGHRSMNPCPLYDAQTGTLFLFFIAIPGQVTEQQQLQTRANVTRLCQVTSTDHGRTWSSPRDLTDAAIGPAYREWSTFAVGPGHCLQLHDRARSLVVPAYAYRKLHPIQRPIPSAFCFLSHDHGRTWARGHFVAQDTLECQVAEVETGEQRVVTLNARSHLRARVQAQSTNDGLDFQESQLVKKLVEPPPQGCQGSVISFPSPRSGPGSPAQWLLYTHPTHSWQRADLGAYLNPRPPAPEAWSEPVLLAKGSCAYSDLQSMGTGPDGSPLFGCLYEANDYEEIVFLMFTLKQAFPAEYLPQ
B2: in series [2], the Michaelis constant (Km) amounted to 1800 µM.

B3: Sialidase-3 (Homo sapiens), Q9UQ49 (protein)
chain: MEEVTTCSFNSPLFRQEDDRGITYRIPALLYIPPTHTFLAFAEKRSTRRDEDALHLVLRRGLRIGQLVQWGPLKPLMEATLPGHRTMNPCPVWEQKSGCVFLFFICVRGHVTERQQIVSGRNAARLCFIYSQDAGCSWSEVRDLTEEVIGSELKHWATFAVGPGHGIQLQSGRLVIPAYTYYIPSWFFCFQLPCKTRPHSLMIYSDDLGVTWHHGRLIRPMVTVECEVAEVTGRAGHPVLYCSARTPNRCRAEALSTDHGEGFQRLALSRQLCEPPHGCQGSVVSFRPLEIPHRCQDSSSKDAPTIQQSSPGSSLRLEEEAGTPSESWLLYSHPTSRKQRVDLGIYLNQTPLEAACWSRPWILHCGPCGYSDLAALEEEGLFGCLFECGTKQECEQIAFRLFTHREILSHLQGDCTSPGRNPSQFKSN
For B3, the Km in series [3] turned out to be 45.6 µM.

What is called Km is the concentration of substrate that gives half-maximal velocity.
